# B1: NLB4 VHH antibody fused with human IgG1 (Fc) (Fc fusion)
# chain: DVQLQESGGGLVQSGGSLRLSCLASGTSGNVKAVGWYGWYRQAPGKQREVVATITRGGIPNYADSVQGRFTISRDNAQDTVFLQMNSLKPADTAVYYCYARILTDDWHDLWGQGTQVTVSSGGGGS
# notes: also called NLB(G4S)IGG1FC; NLB4 nanobody; not shown: human IgG1 Fc
# B2: NLB14 VHH antibody fused with human IgG1 (Fc) (Fc fusion)
# chain: DVQLQESGGGLVQPGGSLRLSCAASGFTLDYYAIGWFRQAPGKEREGVSCVSSSDGSTYYADSVKGRFTISRDNAKNTVYLQMNSLKPEDTAVYYCAADQYSSTWTIRLTRCHFGSWGQGTQVTVSSGGGGS
# notes: also called NLB(G4S)IGG1FC; NLB14 nanobody; not shown: human IgG1 Fc
# How the values were obtained:
# stock region of LILRB4 = target: T1, stock region of LILRB4 (UniProt Q8NHJ6 219-259, limits assumed); experiment: flow cytometry
# T1 construct: domain: stock region
# mouse LILRB4 = target: T2, mouse LILRB4 (mouse, UniProt Q64281 24-335); experiment: flow cytometry on 293T-mouse LILRB4
# T2 construct: whole, on cells; also called 293T-mouse LILRB4
# T2 sequence (looked up): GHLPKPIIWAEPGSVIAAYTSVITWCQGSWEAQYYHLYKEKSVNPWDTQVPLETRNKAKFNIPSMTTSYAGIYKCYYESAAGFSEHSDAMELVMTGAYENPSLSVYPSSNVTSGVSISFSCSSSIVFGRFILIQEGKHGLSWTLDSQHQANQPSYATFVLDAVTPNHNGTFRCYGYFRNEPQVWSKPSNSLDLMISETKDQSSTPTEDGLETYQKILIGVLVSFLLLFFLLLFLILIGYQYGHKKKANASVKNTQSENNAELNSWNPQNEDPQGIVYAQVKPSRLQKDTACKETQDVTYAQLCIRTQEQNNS
# LILRB4 protein = target: T3, LILRB4 protein (UniProt Q8NHJ6 22-259); experiment: SPR (Biacore 8K); VHH-Fc captured by anti-human IgG(Fc) on CM5 chip, LILRB4 protein as analyte 0.977-62.5 nM; 1:1 binding fit
# T3 construct: also called Pro-LB
# LILRA2 = target: T4, LILRA2 (UniProt Q8N149 24-483, limits assumed); experiment: flow cytometry on 293T cells expressing the protein
# T4 construct: whole, on cells
# LILRB2 = target: T5, LILRB2 (UniProt Q8N423 22-597, limits assumed); experiment: as above
# T5 construct: whole, on cells
# LILRB5 = target: T6, LILRB5 (UniProt O75023 24-590, limits assumed); experiment: as above
# T6 construct: whole, on cells
# LILRB3 = target: T7, LILRB3 (UniProt O75022 24-631, limits assumed); experiment: as above
# T7 construct: whole, on cells
# LILRA3 = target: T8, LILRA3 (UniProt Q8N6C8 24-439, limits assumed); experiment: as above
# T8 construct: whole, on cells
# LILRB1 = target: T9, LILRB1 (UniProt Q8NHL6 24-650, limits assumed); experiment: as above
# T9 construct: whole, on cells
# LILRA1 = target: T10, LILRA1 (UniProt O75019 17-489, limits assumed); experiment: as above
# T10 construct: whole, on cells
# LILRA6 = target: T11, LILRA6 (UniProt Q6PI73 24-481, limits assumed); experiment: as above
# T11 construct: whole, on cells
# LILRA4 = target: T12, LILRA4 (UniProt P59901 24-499, limits assumed); experiment: as above
# T12 construct: whole, on cells
# LILRA5 = target: T13, LILRA5 (UniProt A6NI73 42-299, limits assumed); experiment: as above
# T13 construct: whole, on cells
# T13 sequence (A6NI73 42-299 limits assumed): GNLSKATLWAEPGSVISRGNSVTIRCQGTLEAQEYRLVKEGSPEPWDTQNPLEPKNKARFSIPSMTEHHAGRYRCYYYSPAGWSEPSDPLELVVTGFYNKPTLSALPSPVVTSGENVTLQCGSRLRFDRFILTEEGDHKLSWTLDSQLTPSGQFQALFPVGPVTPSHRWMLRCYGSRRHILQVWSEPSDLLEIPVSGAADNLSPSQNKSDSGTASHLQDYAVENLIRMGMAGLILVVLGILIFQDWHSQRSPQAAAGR
# T7 sequence (O75022 24-631 limits assumed): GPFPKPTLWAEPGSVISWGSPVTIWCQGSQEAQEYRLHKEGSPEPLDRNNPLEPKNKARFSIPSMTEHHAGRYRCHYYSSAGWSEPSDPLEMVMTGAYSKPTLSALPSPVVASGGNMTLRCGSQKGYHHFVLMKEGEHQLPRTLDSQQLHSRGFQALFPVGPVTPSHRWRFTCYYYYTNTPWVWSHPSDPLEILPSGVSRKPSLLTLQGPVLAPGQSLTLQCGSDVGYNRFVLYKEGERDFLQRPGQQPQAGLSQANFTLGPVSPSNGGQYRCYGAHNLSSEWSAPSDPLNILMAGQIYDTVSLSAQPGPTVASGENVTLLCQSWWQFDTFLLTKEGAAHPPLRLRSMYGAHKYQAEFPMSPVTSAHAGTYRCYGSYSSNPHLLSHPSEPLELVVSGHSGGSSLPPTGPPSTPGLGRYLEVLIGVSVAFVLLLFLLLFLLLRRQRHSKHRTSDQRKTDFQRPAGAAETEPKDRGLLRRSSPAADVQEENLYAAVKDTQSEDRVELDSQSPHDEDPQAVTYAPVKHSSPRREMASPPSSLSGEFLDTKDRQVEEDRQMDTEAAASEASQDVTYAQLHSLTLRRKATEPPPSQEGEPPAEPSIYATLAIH
# T9 sequence (Q8NHL6 24-650 limits assumed): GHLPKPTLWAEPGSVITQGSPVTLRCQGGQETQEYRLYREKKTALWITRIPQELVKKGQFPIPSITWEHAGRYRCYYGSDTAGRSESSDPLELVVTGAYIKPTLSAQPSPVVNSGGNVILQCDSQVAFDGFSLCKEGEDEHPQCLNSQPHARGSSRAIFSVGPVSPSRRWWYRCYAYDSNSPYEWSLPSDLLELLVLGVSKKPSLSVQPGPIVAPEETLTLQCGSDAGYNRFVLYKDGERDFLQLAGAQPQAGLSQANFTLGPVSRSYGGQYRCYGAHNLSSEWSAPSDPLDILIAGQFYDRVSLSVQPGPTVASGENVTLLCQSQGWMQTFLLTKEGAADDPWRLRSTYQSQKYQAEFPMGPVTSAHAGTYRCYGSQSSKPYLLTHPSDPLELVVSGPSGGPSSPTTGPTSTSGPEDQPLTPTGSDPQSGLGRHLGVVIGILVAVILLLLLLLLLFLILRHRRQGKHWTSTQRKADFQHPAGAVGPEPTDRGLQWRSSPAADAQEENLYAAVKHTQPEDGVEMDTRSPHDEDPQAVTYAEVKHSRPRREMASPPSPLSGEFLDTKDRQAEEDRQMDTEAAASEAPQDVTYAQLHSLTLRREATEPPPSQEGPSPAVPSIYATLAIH
# T1 sequence (Q8NHJ6 219-259 limits assumed): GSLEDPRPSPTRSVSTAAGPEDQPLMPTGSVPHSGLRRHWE
# T5 sequence (Q8N423 22-597 limits assumed): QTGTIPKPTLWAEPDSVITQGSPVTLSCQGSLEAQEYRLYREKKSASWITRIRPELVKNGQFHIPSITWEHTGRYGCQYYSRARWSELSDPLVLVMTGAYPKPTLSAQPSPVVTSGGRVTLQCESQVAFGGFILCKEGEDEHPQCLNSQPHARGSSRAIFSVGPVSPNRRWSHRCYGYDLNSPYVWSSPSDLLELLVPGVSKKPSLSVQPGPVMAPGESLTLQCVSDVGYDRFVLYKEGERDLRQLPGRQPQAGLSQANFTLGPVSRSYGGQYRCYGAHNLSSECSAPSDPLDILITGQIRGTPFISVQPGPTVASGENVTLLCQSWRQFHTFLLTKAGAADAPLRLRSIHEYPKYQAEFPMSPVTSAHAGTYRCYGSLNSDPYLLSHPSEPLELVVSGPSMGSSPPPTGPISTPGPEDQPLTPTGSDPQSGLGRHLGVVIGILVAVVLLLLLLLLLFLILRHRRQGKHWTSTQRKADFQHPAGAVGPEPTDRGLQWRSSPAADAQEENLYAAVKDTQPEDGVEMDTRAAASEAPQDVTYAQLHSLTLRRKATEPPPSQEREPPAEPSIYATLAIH
# T8 sequence (Q8N6C8 24-439 limits assumed): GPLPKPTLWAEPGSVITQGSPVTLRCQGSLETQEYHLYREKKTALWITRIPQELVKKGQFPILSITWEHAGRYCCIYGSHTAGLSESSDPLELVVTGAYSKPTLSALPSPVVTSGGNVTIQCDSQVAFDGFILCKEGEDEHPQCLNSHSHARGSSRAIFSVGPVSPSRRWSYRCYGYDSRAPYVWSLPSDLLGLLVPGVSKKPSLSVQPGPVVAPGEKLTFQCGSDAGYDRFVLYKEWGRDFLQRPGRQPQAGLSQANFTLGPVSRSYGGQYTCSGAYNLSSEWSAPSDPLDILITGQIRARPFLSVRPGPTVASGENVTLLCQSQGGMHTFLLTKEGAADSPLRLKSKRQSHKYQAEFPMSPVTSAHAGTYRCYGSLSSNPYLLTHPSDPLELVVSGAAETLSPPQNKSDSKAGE
# T10 sequence (O75019 17-489 limits assumed): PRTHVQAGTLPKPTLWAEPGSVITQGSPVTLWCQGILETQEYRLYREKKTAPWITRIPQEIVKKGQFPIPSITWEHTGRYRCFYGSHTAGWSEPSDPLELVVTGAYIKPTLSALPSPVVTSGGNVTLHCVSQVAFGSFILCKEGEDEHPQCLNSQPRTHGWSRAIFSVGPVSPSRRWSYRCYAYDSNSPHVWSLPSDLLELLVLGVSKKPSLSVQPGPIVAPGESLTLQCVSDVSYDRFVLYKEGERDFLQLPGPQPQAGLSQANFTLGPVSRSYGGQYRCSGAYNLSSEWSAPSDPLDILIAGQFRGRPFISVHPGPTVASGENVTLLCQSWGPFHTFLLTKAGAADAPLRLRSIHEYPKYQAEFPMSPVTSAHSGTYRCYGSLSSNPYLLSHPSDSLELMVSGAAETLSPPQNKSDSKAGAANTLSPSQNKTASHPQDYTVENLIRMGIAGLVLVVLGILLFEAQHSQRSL
# T4 sequence (Q8N149 24-483 limits assumed): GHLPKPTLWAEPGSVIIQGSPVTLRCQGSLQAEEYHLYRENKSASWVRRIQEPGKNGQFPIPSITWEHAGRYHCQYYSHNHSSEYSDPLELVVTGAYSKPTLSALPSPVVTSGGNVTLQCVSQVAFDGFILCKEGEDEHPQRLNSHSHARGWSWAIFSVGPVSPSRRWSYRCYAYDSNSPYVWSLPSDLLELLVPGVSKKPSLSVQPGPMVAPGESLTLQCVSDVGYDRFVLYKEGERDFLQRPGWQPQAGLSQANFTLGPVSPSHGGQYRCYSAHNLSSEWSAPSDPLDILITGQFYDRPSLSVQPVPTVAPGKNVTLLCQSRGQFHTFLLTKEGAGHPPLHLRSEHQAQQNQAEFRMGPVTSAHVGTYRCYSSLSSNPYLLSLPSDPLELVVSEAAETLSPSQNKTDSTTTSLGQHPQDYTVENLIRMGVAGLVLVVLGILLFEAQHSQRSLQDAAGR
# T12 sequence (P59901 24-499 limits assumed): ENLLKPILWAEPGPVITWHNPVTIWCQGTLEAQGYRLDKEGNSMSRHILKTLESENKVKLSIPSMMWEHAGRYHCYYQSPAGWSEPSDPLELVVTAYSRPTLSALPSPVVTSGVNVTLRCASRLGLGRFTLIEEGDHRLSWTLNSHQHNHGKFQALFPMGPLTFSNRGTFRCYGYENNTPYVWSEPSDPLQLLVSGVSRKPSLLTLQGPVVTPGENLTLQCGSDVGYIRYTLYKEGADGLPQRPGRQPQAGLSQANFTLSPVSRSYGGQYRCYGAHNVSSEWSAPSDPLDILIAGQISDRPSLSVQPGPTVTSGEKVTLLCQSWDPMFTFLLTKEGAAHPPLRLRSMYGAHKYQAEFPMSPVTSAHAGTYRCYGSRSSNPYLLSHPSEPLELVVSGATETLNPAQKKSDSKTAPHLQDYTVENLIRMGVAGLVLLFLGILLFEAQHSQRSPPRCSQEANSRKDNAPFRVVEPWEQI
# T11 sequence (Q6PI73 24-481 limits assumed): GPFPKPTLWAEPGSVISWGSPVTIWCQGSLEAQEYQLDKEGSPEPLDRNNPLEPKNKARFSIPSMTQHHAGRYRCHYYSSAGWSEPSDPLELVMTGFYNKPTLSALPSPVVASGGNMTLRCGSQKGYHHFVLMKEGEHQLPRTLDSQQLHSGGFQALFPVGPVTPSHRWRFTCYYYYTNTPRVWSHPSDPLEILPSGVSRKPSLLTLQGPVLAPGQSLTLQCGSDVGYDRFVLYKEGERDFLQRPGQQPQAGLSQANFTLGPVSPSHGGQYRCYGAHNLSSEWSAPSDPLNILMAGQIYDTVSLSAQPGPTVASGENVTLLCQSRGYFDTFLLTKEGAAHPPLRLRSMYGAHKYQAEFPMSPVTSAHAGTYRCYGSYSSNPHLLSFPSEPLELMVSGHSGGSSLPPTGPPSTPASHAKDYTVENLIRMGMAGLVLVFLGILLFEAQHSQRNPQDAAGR
# T6 sequence (O75023 24-590 limits assumed): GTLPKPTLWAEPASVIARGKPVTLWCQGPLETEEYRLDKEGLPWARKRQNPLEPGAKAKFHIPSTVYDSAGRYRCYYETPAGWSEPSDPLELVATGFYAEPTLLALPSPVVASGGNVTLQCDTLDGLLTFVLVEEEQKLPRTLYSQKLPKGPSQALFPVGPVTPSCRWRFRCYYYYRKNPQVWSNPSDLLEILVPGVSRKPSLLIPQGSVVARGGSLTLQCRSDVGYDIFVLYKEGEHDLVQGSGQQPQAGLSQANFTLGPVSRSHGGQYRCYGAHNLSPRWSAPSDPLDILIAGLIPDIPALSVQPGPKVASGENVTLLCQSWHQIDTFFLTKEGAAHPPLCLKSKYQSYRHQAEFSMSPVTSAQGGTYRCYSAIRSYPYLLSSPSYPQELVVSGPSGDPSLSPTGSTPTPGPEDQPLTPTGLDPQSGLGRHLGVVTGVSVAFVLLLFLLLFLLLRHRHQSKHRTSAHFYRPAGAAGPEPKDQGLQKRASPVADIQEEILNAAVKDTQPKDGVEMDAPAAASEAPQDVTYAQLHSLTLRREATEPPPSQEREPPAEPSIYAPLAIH
Binder,binding result (stock region of LILRB4),binding result (mouse LILRB4),Kd (LILRB4 protein) [nM],koff (LILRB4 protein) [s⁻¹],kon (LILRB4 protein) [M⁻¹ s⁻¹],binding result (LILRA2),binding result (LILRB2),binding result (LILRB5),binding result (LILRB3),binding result (LILRA3),binding result (LILRB1),binding result (LILRA1),binding result (LILRA6),binding result (LILRA4),binding result (LILRA5)
B1,no binding,no binding,1.32,0.000551,418000,no binding,no binding,no binding,no binding,no binding,no binding,no binding,no binding,no binding,no binding
B2,no binding,no binding,0.493,0.000301,612000,no binding,no binding,no binding,no binding,no binding,no binding,no binding,no binding,no binding,no binding
